From patent US20250122267A1

Molecular target: serum TGFβ1 of the treated mice (mouse) (UniProt P04202)
Test: cell-based or functional assay

Chain of UniProt P04202 (P04202 279-390 limits assumed): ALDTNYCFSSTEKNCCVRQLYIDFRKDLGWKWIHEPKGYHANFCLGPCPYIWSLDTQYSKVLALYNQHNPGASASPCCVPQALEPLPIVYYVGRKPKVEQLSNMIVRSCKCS

With “sTGFbR2-Fc(igg2Ae), fusion of the mouse TGFbR2 extracellular domain with the mouse igg domain (Fc fusion)” the serum TGFβ1 after administration of the AAV encoding the soluble receptor (FIG. 2, TGFb1 knockdown versus dosage) was less than 95%.
